# Measured values as given in PMC3771917, “The Crystal Structure of the Orphan Nuclear Receptor NR2E3/PNR Ligand Binding Domain Reveals a Dimeric Auto-Repressed Conformation” (PLoS ONE, 2013).
# Molecular target: the molecule itself
# Assay: SEC; MBP-NR2E3 LBD in solution, compared with Bio-rad Protein Standard
protein,measurement,value
"MBP-NR2E3 LBD-His6 fusion protein (MBP–NAAAEF linker–NR2E3(217-410)-His6, C275S) (domain or fragment, human, UniProt Q9Y5X4 217-410, looked up, Both tags are non-cleavable; Expressed from pETDuet1; also called MBP-NR2E3 fusion protein; apo NR2E3 LBD; source: E. coli BL21 (DE3), purified (Ni-chelating Hi-Trap, Superdex 200 gel filtration); not shown: MBP (joined by the linker NAAAEF), N-terminal, kept; His6, C-terminal, kept) LDSIHETSARLLFMAVKWAKNLPVFSSLPFRDQVILLEEAWSELFLLGAIQWSLPLDSSPLLAPPEASAAGGAQGRLTLASMETRVLQETISRFRALAVDPTEFACMKALVLFKPETRGLKDPEHVEALQDQSQVMLSQHSKAHHPSQPVRFGKLLLLLPSLRFITAERIELLFFRKTIGNTPMEKLLCDMFKN",stoichiometry N,2
